According to US20240174744A1 (SCIRHOM, published 2024):

T1: miR2-FL-WT-T7 (mouse iRhom2 full length wild type C-terminally tagged with 3 consecutive copies of the T7 … (mouse, UniProt Q80WQ6 1-827))
T1 construct: also called mouse iRhom2 variant expressed by MEF-DKO-miR2-FL-WT-T7 cells
T1 sequence: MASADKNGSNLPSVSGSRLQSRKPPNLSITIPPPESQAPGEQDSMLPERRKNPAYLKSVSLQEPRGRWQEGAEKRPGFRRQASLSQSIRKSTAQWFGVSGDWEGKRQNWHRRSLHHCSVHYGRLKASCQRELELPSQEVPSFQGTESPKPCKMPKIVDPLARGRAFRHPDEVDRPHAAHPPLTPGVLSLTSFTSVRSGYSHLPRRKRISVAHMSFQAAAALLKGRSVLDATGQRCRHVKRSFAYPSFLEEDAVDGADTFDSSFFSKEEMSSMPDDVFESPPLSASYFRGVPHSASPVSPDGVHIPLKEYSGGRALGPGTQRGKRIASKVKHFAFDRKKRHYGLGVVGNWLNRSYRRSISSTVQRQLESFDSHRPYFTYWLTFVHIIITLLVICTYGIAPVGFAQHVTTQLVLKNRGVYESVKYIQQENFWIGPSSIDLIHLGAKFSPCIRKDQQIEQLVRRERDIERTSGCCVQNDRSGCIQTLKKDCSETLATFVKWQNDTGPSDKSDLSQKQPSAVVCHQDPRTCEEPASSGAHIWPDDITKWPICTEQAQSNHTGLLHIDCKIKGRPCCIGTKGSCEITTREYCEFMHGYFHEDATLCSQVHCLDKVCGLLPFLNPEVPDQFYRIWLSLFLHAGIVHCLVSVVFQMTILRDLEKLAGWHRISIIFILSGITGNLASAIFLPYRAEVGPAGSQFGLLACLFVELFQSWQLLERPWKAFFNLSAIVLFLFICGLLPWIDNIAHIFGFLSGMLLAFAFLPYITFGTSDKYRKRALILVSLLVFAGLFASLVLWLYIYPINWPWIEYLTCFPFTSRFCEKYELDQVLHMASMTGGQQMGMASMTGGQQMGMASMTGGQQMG


molecular target: T1, miR2-FL-WT-T7 (mouse iRhom2 full length …); experiment: FACS on cells of the row mouse iR2 wild type, vs human iR2 wild type = 100%
Description: In brief, immortalized MEF-DKO-hiR2-FL-WT-T7 cells, MEF-DKO-miR2-FL-WT-T7 cells and MEF-DKO-hiR2-FL-R441K-T7, MEF-DKO-hiR2-FL-K443R-T7, MEF-DKO-hiR2-FL-V459I-T7, MEF-DKO-hiR2-FL-G481Q-T7, MEF-DKO-hiR2-FL-L488R-T7, MEF-DKO-hiR2-FL-L493I-T7, MEF-DKO-hiR2-FL-D496T-T7, MEF-DKO-hiR2-FL-H505R-T7, MEF-DKO-hiR2-FL-Q512L-T7, MEF-DKO-hiR2-FL-R513K-T7, MEF-DKO-hiR2-FL-D528N-T7, MEF-DKO-hiR2-FL-P533-T7, MEF-DKO-hiR2-FL-M534S-T7, MEF-DKO-hiR2-FL-G540S-T7, MEF-DKO-hiR2-FL-R543Q-T7, MEF-DKO-hiR2-FL-T544P-T7, MEF-DKO-hiR2-FL-G546A-T7, MEF-DKO-hiR2-FL-A547V-T7, MEF-DKO-hiR2-FL-R582Q-T7, MEF-DKO-hiR2-FL-F588L-T7, MEF-DKO-hiR2-FL-M591I-T7, MEF-DKO-hiR2-FL-E594K-T7, MEF-DKO-hiR2-FL-E626D-T7, MEF-DKO-hiR2-FL-L657I-T7, and MEF-DKO-hiR2-FL-H835Y-T7 cells were harvested with 10 mM EDTA in PBS, washed and resuspended in FACS buffer (PBS, 3% FBS, 0.05% sodium azide), and seeded in Nunc U-bottom 96-well plates (Thermo Fisher Scientific, USA) at approximately 3×10⁵ cells per well. To pellet cells and remove supernatants, the plates were centrifuged at 1,500 rpm and 4° C. for 3 minutes. For primary staining, cells were resuspended in 100 μl per well of either FACS buffer alone (controls) or the purified antibodies 3, 5, 16, 22, 34, 42, 43, 44, 48, and 50 of the present disclosure at 3 μg/ml FACS buffer and incubated on ice for 1 hour. Afterwards, plates were centrifuged at 1,500 rpm and 4° C. for 3 minutes and washed twice with 200 μl per well of FACS buffer. For secondary staining, cells were spun down and resuspended in 100 μl per well of PE-conjugated goat anti-mouse IgG F(ab′)2 detection fragment (Dianova, Germany) diluted 1:100 in FACS buffer. Protected from light, the cell suspensions were incubated on ice for 1 hour. Plates were then centrifuged at 1,500 rpm and 4° C. for 3 minutes and washed three times with 200 μl per well of FACS buffer. Finally, cells were resuspended in 150 μl per well of FACS buffer and analyzed using a BD Accuri™ C6 Plus flow cytometer (Becton Dickinson, Germany).

Row | Binder | grade of loss of binding vs wild type
1 | antibody 34 (antibody, V domains shown, Mouse IgG, kappa light chain; also called clone #34; m34) VH: QVTLKESGPGILQPSQTLSLTCSFSGFSLSTFSLGVGWIRQSSGKGLEWLAHIWWDDEKYYNPALKSRLTISKDTSKNQVFLKIANVDAADTATYYCARAYYSKSYYALDYWGQGTSVTVSS VL: DIQMTQSPSSLSASLGERVSLTCRASQEISGYLSWLQQKPDGTIKRLIYAASTLDSGVPKRFSGSRSGSDYSLAISSLESEDFADYYCLQYANFPFTFGSGTKLEIK | 3 grade (3 => 95% loss of binding vs wild type)
2 | antibody 50 (antibody, V domains shown, Mouse IgG, kappa light chain; also called clone #50; purified antibody 50) VH: QVQLQQSGAELVRPGASVKVSCKASGYAFSNYLIEWVKQRPGQGLEWIGVINPGSGFTKYNEKFKGKATLTADKSSSTAYMQLSSLTSEDSAVYFCARGLYRAMDYWGQGTSVTVSS VL: DIQMTQSPASQSASLGESVTITCLASQTIGTWLAWYQQKPGKSPQLLIYAAASLADGVPSRFSGGGSGTKFSFKISSLQAEDFVNYYCQQIYSTPYTFGGGTKLEIK | 3 grade (3 => 95% loss of binding vs wild type)
3 | antibody 43 (antibody, V domains shown, Mouse IgG, kappa light chain; also called clone #43) VH: QVALKESGPGILQPSQTLSLTCSFSGFSLSTFGMGVGWIRQSSGKGLEWLANIWWDDDKYYNPALKSRLTISKDASKNQAFLKIANVDTADTATYYCARIGNYGSNYWYFDVWGTGTTVTVSS VL: QIVLTQSPAIMSASPGERVTMTCSANSRISYMYWYQQKPGSSPRLLIYDTSNLASGVPVRFSGSGSGTSYSLTISRMEAEDAATYNCQQWSSYPLTFGAGTKLELK | 3 grade (3 => 95% loss of binding vs wild type)
4 | antibody 44 (antibody, V domains shown, Mouse IgG, kappa light chain; also called clone #44; m44) VH: QVTLKESGPGILQPSQTLSLTCSFSGFSLSTFGMGVGWIRQPSEKGLEWLAHIWWDDDKYYNPALKSRLTISKDTSKNQIFLKITNVDTAETATYYCSRIGNYGSNYWYFDVWGTGTTVTVSS VL: QIVLTQSPAVMSASPGEKVTMTCTASSSVYYMYWYQQTPGSSPRLLIYDTSNLASGVPVRFSGSGSGTSYSLTISRMEAEDAATYYCQQWNTYPLTFGAGTKLELK | 3 grade (3 => 95% loss of binding vs wild type)
5 | antibody 42 (antibody, V domains shown, Mouse IgG, kappa light chain; also called clone #42; m42) VH: QVTLKESGPGILQPSQTLSLTCSLSGFSLSTFGRGVGWIRQPSGKGLEWLAHIWWDDEKYYNPALKSRLTISKDTSKNQVFLRIANVDTADTATYYCARIQNYGSNYWYFDVWGTGTTVTVSS VL: LIVLTQSPAIMSASPGEKVTMTCGATSRISYMFWYQQKPGSSPRVLIYDTSNLASGVPVRFSGSGSGTSYSLTISRVEAEDVATYYCQQWNSYPLTFGAGTKLELK | 3 grade (3 => 95% loss of binding vs wild type)
6 | antibody 5 (antibody, V domains shown, Mouse IgG, kappa light chain; also called clone #5; purified antibody 5) VH: QVTLKESGPGILQPSQTLSLTCSFSGFSLSTFGMGVGWIRQPSGKGLEWLAHIWWDDEKYYNSALKSRLTISKATSKNQAFLKIANVDTADTATYYCARISNYGSNYWYFNVWGTGTTVTVSS VL: QVVLTQSPALMSASPGEKVTMTCSAGSSVSCMYWYQQKPGSSPRVLIYDTSNLASGVPARFTGSGSGTSYSLTISRMEAEDAASYYCQQWNSYPLTFGAGTKLELK | 3 grade (3 => 95% loss of binding vs wild type)
7 | antibody 22 (antibody, V domains shown, Mouse IgG, kappa light chain; also called clone #22; m22) VH: QVTLKESGPGILQPSQTLSLTCSFSGFSLSTFGMGVGWIRQPSGKGLEWLAHIWWDDEKYYNSALKSRLTISKATSKNQVFLKIANVDTADTATYYCARISNYGSNYWYFNVWGTGTTVTVSS VL: QVVLTQSPALMSASPGEKVTMTCSAGSSVSYMYWYQQKPGSSPRVLIYDTSNLASGVPARFTGSGSGTSYSLTISRMEAEDAATYYCQQWNSYPLTFGAGTKLELK | 3 grade (3 => 95% loss of binding vs wild type)
8 | antibody 16 (antibody, V domains shown, Mouse IgG, kappa light chain; also called clone #16; m16) VH: QVTLKESGPGILQPSQTLSLTCSFSGFSLSTFALGVGWIRQPSGRGLEWLAHIWWDDDKYYNPALKSRLTISKDTSKNHVFLKIANVDTADTATYYCARITTYYYGMDYWGQGTSVTVSS VL: DIVLSQSPATLSVTPGDSVSLFCRASQSIGNHLHWYQQESHASPRLLIKYASQSISGIPSRFSGSGSGTDFTLSINSVETEDFGMYFCQQSYNWPLTFGAGTKLELK | 3 grade (3 => 95% loss of binding vs wild type)
9 | antibody 3 (antibody, V domains shown, Mouse IgG, kappa light chain; also called clone #3; purified antibody 3) VH: QVTLKESGPGILQPSQTLSLTCSFSGFSLTTFAMGIGWVRQPSGKGLEWLAHIWWDGEKYNNPVLKSRLTISKDTSKNQVFLRIANVDTPDTATYYCARISSIYYIIDNWGQGTSVTVSS VL: DIVLTQSPATLSVTPGHSVSLSCRASQSISNNLHWYQKKSHESPRLLIKYVSQSISGIPSRFSGSGSGTDFTLSINSVETEDFGMYFCQQSYNWPLTFGAGTKLELK | 3 grade (3 => 95% loss of binding vs wild type)
